Data from patent US20240181022A1, “AMURINS LYSINS, AND LYSIN-ANTIMICROBIAL PEPTIDE (AMP) CONSTRUCTS ACTIVE AGAINST GRAM-NEGATIVE BACTERIA” (priority 2021, published 2024).

Tests used:
[1] = system: A. baumannii; assay: Checkerboard synergy assay (FICI) against A. baumannii; type: cell-based, Acinetobacter baumannii; conditions: A. baumannii ATCC BAA-747
[2] = system: Klebsiella oxytoca; assay: MIC by broth microdilution against Klebsiella oxytoca; type: cell-based; conditions: N 1
Description: (§1) MIC values were determined by broth microdilution against clinical isolates and resistant isolates from a wide range of bacterial species, including isolates from the CDC Antibiotic Resistance bank, including the GN ESKAPE pathogens and E. coli, including carbapenem-resistant Enterobacteriaciae, Acinetobacter, and Pseudomonas.

[3] = system: Burkholderia cepacia; assay: MIC by broth microdilution against Burkholderia cepacia; type: cell-based; conditions: N 9
Description: as §1

[4] = system: K. pneumoniae; assay: MIC by broth microdilution against K. pneumoniae; type: cell-based, Klebsiella pneumoniae
[5] = system: E. coli (ATCC 25922); assay: microbe, parasite or virus in culture; type: cell-based, Escherichia coli
[6] = system: E. coli; assay: MBEC against E. coli biofilm; type: cell-based, Escherichia coli; conditions: MDR and XDR E. coli (11)
[7] = system: Gram-negative bacteria biofilm; assay: Antibiofilm activity (MBEC) against Gram-negative bacteria, incl. MDR and XDR isolates; type: cell-based; conditions: range of MDR and XDR isolates
[8] = system: E. cloacae; assay: MIC by broth microdilution against E. cloacae; type: cell-based, Enterobacter cloacae
[9] = system: P. aeruginosa; assay: SEM and TEM imaging of membrane damage; type: cell-based, Pseudomonas aeruginosa; conditions: prior to pore formation and lysis
Description: Additionally, the mechanism of action of both the Chp peptides and the lysins and/or lysin-AMP constructs disclosed herein may be evaluated through the use of Scanning Electron Microscopy (SEM) and Transmission Electron Microscopy (TEM) techniques. Due to the rapid permeabilization and depolarization of bacterial membranes when contacted with Chp peptides, as discussed above, membrane damage may be visualized through SEM and TEM. […] TEM and SEM images taken approximately 2 minutes after Chp peptide (8 μg/mL) contact with P. aeruginosa show the formation of multiple bulges on the bacterial membrane, as well as the appearance of pore formation and degradation of the cellular membrane. TEM and SEM images taken approximately 5 minutes after Chp peptide (8 μg/mL) contact with P. aeruginosa show continued formation of membrane bulges, along with degradation of the cellular membrane, condensation of electron-dense cytoplasmic material, formation of spheroplasts, and pore formation. TEM and SEM images taken approximately 20 minutes after Chp peptide (8 μg/mL) contact with P. aeruginosa show multiple instances of pore formation and the appearance of ghost cells, empty of intracellular content.

[10] = system: A. baumannii; assay: MIC by broth microdilution against A. baumannii; type: cell-based, Acinetobacter baumannii
[11] = system: Ralstonia mannitolilytica; assay: MIC by broth microdilution against Ralstonia mannitolilytica; type: cell-based; conditions: N 10
Description: as §1

[12] = system: E. cloacae; assay: GN370 time-kill assay, E. cloacae; type: cell-based, Enterobacter cloacae; conditions: for Log10 CFU/mL: E. cloacae ATCC 29941
Description: A kinetic analysis of GN370 bactericidal activity was performed using a time-kill assay format in which CFU reductions of each target organism (P. aeruginosa, K. pneumoniae, A. baumannii, E. coli, and E. cloacae) were measured over 24 hours at 37° C. […] Bactericidal activity was defined as CFU reductions of ≥3-log 10 CFU/mL as compared to the inoculum at the 24-hour time point.

[13] = Klebsiella pneumoniae, AR Bank, N 32
[14] = Klebsiella pneumoniae, Weill Cornell, N 9
[15] = Klebsiella pneumoniae, all isolates, N 41
[16] = Enterobacter cloacae, AR Bank, N 7
[17] = Enterobacter cloacae, Weill Cornell, N 30
[18] = Enterobacter cloacae, all isolates, N 37
[19] = Acinetobacter baumannii, AR Bank, N 41
[20] = Acinetobacter baumannii, Weill Cornell, N 26
[21] = Acinetobacter baumannii, all isolates, N 67

Molecule: C[C@@H](O)[C@H]1C(=O)N2C(C(=O)O)=C(S[C@@H]3CN[C@H](C(=O)N(C)C)C3)[C@H](C)[C@H]12 [meropenem, reference compound]
- FICI of the antibiotic with GN370 [1]: 0.5

B1: GN370: lysin-AMP construct, SEQ ID NO: 149: MIDR, FIRL and NPTH moieties N-terminal to GN202 lysin (protein)
chain: MIDRFIRLNPTHGPRRPRRPGRRAPVRTSQRGIDLIKSFEGLRLSAYQDSVGVWTIGYGTTRGVTRYMTITVEQAERMLSNDIQRFEPELDRLAKVPLNQNQWDALMSFVYNLGAANLASSTLLDLLNKGDYQGAADQFPHWVNAGGKRLDGLVKRRAAERALFLEPLS
modifications: GN370 lysin
- MIC Range [2]: 4 µg/mL
- MIC50 [3]: >64 µg/mL
- MIC90 [3]: >64 µg/mL
- MIC Range [3]: >64 µg/mL
- MIC ([4]; K. pneumoniae ATCC 700603): (MIC = 4 μg/mL)
- MIC ([4]; K. pneumoniae HM-44 (head of Table 19)): 4 µg/mL
- MIC90 ([4]; K. pneumoniae clinical and resistant isolates): 4 µg/mL
- MIC50 [4, 13]: 1 µg/mL
- MIC90 [4, 13]: 4 µg/mL
- MIC Range [4, 13]: 0.125 to 4 µg/mL
- MIC50 [4, 14]: 2 µg/mL
- MIC90 [4, 14]: 4 µg/mL
- MIC Range [4, 14]: 0.25 to 4 µg/mL
- MIC50 [4, 15]: 2 µg/mL
- MIC90 [4, 15]: 4 µg/mL
- MIC Range [4, 15]: 0.125 to 4 µg/mL
- change in MIC over 28-day serial passage ([5]; E. coli (ATCC 25922)): No change
- MIC ([5]; E. coli ATCC 25922, target organism of serial passage study): 0.5 µg/mL
- MBEC50 [6]: 0.5 µg/mL
- MBEC90 [6]: 2 µg/mL
- MBEC Range [6]: 0.25 to 2 µg/mL
- Number of isolates at MBEC 0.5 μg/mL [6]: 5
- Number of isolates at MBEC 1 μg/mL [6]: 2
- Number of isolates at MBEC 2 μg/mL [6]: 2
- Number of isolates at MBEC […] [6]: 2
- MBEC [7]: ≤ 4 µg/mL
- MIC ([8]; E. cloacae ATCC 13047 (head of Table 19)): 2 µg/mL
- MIC ([8]; E. cloacae ATCC 29941): (MIC = 2 μg/mL)
- MIC90 ([8]; E. cloacae clinical and resistant isolates): 4 µg/mL
- MIC50 [8, 16]: 1 µg/mL
- MIC90 [8, 16]: 4 µg/mL
- MIC Range [8, 16]: 0.25 to 8 µg/mL
- MIC50 [8, 17]: 2 µg/mL
- MIC90 [8, 17]: 4 µg/mL
- MIC Range [8, 17]: 0.25 to 8 µg/mL
- MIC50 [8, 18]: 1 µg/mL
- MIC90 [8, 18]: 4 µg/mL
- MIC Range [8, 18]: 0.016 to 8 µg/mL
- membrane damage seen by TEM and SEM [9]: more extensive and larger membrane blebs
- MIC ([10]; A. baumannii ATCC BAA 747 (Table 27)): (MIC = 1 μg/mL)
- MIC ([10]; A. baumannii ATCC BAA-747 (head of Table 19)): 1 µg/mL
- MIC90 ([10]; A. baumannii clinical and resistant isolates): 1 µg/mL
- MIC50 [10, 19]: 1 µg/mL
- MIC90 [10, 19]: 1 µg/mL
- MIC Range [10, 19]: 0.064 to 2 µg/mL
- MIC50 [10, 20]: 1 µg/mL
- MIC90 [10, 20]: 1 µg/mL
- MIC Range [10, 20]: 0.25 to 1 µg/mL
- MIC50 [10, 21]: 1 µg/mL
- MIC90 [10, 21]: 1 µg/mL
- MIC Range [10, 21]: 0.0625 to 2 µg/mL
- MIC50 [11]: >64 µg/mL
- MIC90 [11]: >64 µg/mL
- MIC Range [11]: >64 µg/mL
- Log10 CFU/mL ([12]; 0.2x MIC, 1 hr): 5.0 Log10 CFU/mL
- Log10 CFU/mL ([12]; 0.2x MIC, 3 hr): 5.0 Log10 CFU/mL
- Log10 CFU/mL ([12]; 0.2x MIC, 24 hr): 9.0 Log10 CFU/mL
- Log10 CFU/mL ([12]; 1x MIC, 1 hr): 2.4 Log10 CFU/mL
- Log10 CFU/mL ([12]; 1x MIC, 3 hr): 1.5 Log10 CFU/mL
- Log10 CFU/mL ([12]; 1x MIC, 24 hr): 2.3 Log10 CFU/mL
- Log10 CFU/mL ([12]; 2x MIC, 1 hr): 1.6 Log10 CFU/mL
- Log10 CFU/mL ([12]; 2x MIC, 3 hr): 1.6 Log10 CFU/mL
- Log10 CFU/mL ([12]; 2x MIC, 24 hr): 1.6 Log10 CFU/mL
- Log10 CFU/mL ([12]; 5x MIC, 1 hr): 1.5 Log10 CFU/mL
- Log10 CFU/mL ([12]; 5x MIC, 3 hr): 1.5 Log10 CFU/mL
- Log10 CFU/mL ([12]; 5x MIC, 24 hr): 1.5 Log10 CFU/mL
- concentration with bactericidal activity (≥3-log 10 CFU/mL reduction at 24 hours) ([12]; E. cloacae, 37° C.): ≥ 1 ×MIC
